Assay results published in patent US20100254992A1.

Legend:
[1] = target: Human Monocyte Chemoattractant Protein-1 (MCP-1) (human) (UniProt P13500); experiment: cell-based or functional assay
[2] = target: Human Monocyte Chemoattractant Protein-1 (MCP-1) (human) (UniProt P13500); experiment: IGEN (BioVeris), MCP-1 Kd
[3] = target: Human Monocyte Chemoattractant Protein-1 (MCP-1) (human) (UniProt P13500); experiment: 125I-MCP-1 binding to CCR2 on THP-1 cells, radioligand competition
[4] = target: HuMCP-1-His6 (wild type) (human) (UniProt P13500); experiment: Biacore
[5] = target: HuMCP-1-His6 Mutant-6 (66D → 66K) (human) (UniProt P13500); experiment: Biacore
[6] = target: HuMCP-1-His6 (wild type) (human) (UniProt P13500); experiment: Biacore, C775 captured, MCP-1-His6 in solution
[7] = target: HuMCP-1-His6 Mutant-1 (33SSK35 → 33NIQ35) (human) (UniProt P13500); experiment: Biacore, C775 captured, MCP-1-His6 in solution
[8] = target: HuMCP-1-His6 Mutant-2 (6NA7 → 6SI7) (human) (UniProt P13500); experiment: Biacore, C775 captured, MCP-1-His6 in solution
[9] = target: HuMCP-1-His6 Mutant-3 (15FT16 → 15VI16) (human) (UniProt P13500); experiment: Biacore, C775 captured, MCP-1-His6 in solution
[10] = target: HuMCP-1-His6 Mutant-4 (29R → 29T) (human) (UniProt P13500); experiment: Biacore, C775 captured, MCP-1-His6 in solution
[11] = target: HuMCP-1-His6 Mutant-5 (46IV47 → 46KR47) (human) (UniProt P13500); experiment: Biacore, C775 captured, MCP-1-His6 in solution
[12] = target: HuMCP-1-His6 Mutant-6 (66D → 66K) (human) (UniProt P13500); experiment: Biacore, C775 captured, MCP-1-His6 in solution
[13] = target: HuMCP-1-His6 Mutant-7 (4AINA7 → 4SVSI7) (human) (UniProt P13500); experiment: Biacore, C775 captured, MCP-1-His6 in solution
[14] = target: HuMCP-1-His6 Mutant-8 (4AINA7 → 4GGGG7) (human) (UniProt P13500); experiment: Biacore, C775 captured, MCP-1-His6 in solution
[15] = target: HuMCP-1-His6 Mutant-9 (4AINA7 . . . 46IV47 → 4SVSI7 . . . 46KR47) (human); experiment: Biacore, C775 captured, MCP-1-His6 in solution
[16] = target: HuMCP-1-His6 Mutant-P8A (human) (UniProt P13500); experiment: Biacore, C775 captured, MCP-1-His6 in solution
[17] = target: HuMCP-1-His6 Mutant-Y13A (human) (UniProt P13500); experiment: Biacore, C775 captured, MCP-1-His6 in solution
Sequence of HuMCP-1-His6 Mutant-Y13A (human) (P13500 24-99 Y36A limits assumed): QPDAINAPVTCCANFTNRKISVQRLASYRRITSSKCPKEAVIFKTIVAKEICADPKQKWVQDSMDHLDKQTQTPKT

Sequence of HuMCP-1-His6 Mutant-2 (6NA7 → 6SI7) (human) (P13500 other isoform, or with tags, fused parts or gaps mutant limits assumed): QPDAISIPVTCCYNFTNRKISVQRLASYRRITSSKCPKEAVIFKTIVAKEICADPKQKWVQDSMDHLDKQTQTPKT
Sequence of HuMCP-1-His6 Mutant-1 (33SSK35 → 33NIQ35) (human) (P13500 other isoform, or with tags, fused parts or gaps mutant limits assumed): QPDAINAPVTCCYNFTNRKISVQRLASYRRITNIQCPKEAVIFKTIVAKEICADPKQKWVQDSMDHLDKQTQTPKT
Sequence of HuMCP-1-His6 Mutant-9 (4AINA7 . . . 46IV47 → 4SVSI7 . . . 46KR47) (human) (chain, as listed by the source mutant limits assumed): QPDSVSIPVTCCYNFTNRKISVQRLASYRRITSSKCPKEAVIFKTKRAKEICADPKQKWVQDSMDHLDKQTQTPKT
Sequence of HuMCP-1-His6 Mutant-4 (29R → 29T) (human) (P13500 other isoform, or with tags, fused parts or gaps mutant limits assumed): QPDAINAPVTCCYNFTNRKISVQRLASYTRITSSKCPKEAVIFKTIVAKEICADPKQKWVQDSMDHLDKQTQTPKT
Sequence of HuMCP-1-His6 Mutant-5 (46IV47 → 46KR47) (human) (P13500 other isoform, or with tags, fused parts or gaps mutant limits assumed): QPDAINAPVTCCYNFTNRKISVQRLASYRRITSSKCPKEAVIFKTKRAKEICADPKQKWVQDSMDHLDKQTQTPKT
Sequence of HuMCP-1-His6 Mutant-P8A (human) (P13500 other isoform, or with tags, fused parts or gaps limits assumed, stated change not applied): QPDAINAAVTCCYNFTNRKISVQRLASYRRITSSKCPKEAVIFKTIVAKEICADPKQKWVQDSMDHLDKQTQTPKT
Sequence of HuMCP-1-His6 Mutant-7 (4AINA7 → 4SVSI7) (human) (P13500 other isoform, or with tags, fused parts or gaps mutant limits assumed): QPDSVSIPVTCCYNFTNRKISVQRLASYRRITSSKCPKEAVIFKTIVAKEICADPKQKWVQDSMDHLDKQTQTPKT
Sequence of HuMCP-1-His6 Mutant-6 (66D → 66K) (human) (P13500 other isoform, or with tags, fused parts or gaps mutant, form in doubt): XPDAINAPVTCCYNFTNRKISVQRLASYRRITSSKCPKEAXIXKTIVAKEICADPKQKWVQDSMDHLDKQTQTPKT
Sequence of HuMCP-1-His6 Mutant-8 (4AINA7 → 4GGGG7) (human) (P13500 other isoform, or with tags, fused parts or gaps mutant limits assumed): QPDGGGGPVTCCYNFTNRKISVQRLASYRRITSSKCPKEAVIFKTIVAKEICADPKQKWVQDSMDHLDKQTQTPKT
Sequence of HuMCP-1-His6 (wild type) (human) (P13500 24-99 limits assumed): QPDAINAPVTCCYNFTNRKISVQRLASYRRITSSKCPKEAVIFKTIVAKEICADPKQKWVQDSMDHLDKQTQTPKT
Sequence of Human Monocyte Chemoattractant Protein-1 (MCP-1) (human) (P13500 24-99 limits assumed): as above
Sequence of HuMCP-1-His6 Mutant-3 (15FT16 → 15VI16) (human) (P13500 other isoform, or with tags, fused parts or gaps mutant limits assumed): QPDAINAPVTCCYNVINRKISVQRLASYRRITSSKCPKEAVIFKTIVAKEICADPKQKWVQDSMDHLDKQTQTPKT

B1: C775 Fab (reference Fab) (Fab, from another filing, V domains shown)
VH: QVQLKQSGAELVRPGASVKLSCKASGYTFTDYYINWVKQRPGQGLEWIARIYPGTGNTYYNENFKGKATLTAEKSSSTAYMQLSSLTSEDSAVYFCARSGSTVVGNYYGMDYWGQGTSVTVSS
VL: SIVMTQTPKFLLVSAGDRVSITCKASQSVSNDVAWYQQKPGQSPKLLIYYASNRYTGVPDRFTGSGYGTDFTFTISTVQAEDLAVYFCQQDYSSPWTFGGGTKLEIKR
**Q.** Which results are given for B1?
**A.** Inhibition of Ca2+ Mobilization IC50 [1]: 71.5 nM; Kd [2]: 65 nM; IC50 [3]: 35.6 nM

B2: C775 (murine anti-human MCP-1 antibody, IgG) (antibody, from another filing, V domains shown)
VH: B1 VH
VL: B1 VL
**Q.** B2 was tested. Which Kd [4] did it give?
**A.** 3 nM

**Q.** What about the fold decrease in fold change in binding affinity against wild type MCP-1 [5] of the same binder?
**A.** 9 fold

**Q.** And the Inhibition of Ca2+ Mobilization IC50 [1]?
**A.** 62.3 nM

**Q.** What about the Kd [6] of the same binder?
**A.** 3.1 nM

**Q.** And the koff [6]?
**A.** 0.00503 s⁻¹

**Q.** And the kon [6]?
**A.** 1.64e+06 M⁻¹ s⁻¹

**Q.** And the Kd [7]?
**A.** 2 nM

**Q.** What about the koff [7] of the same binder?
**A.** 0.0034 s⁻¹

**Q.** And the kon [7]?
**A.** 1.6e+06 M⁻¹ s⁻¹

**Q.** And the Kd [8]?
**A.** 6.3 nM

**Q.** And the koff [8]?
**A.** 0.00548 s⁻¹

**Q.** And the kon [8]?
**A.** 868000 M⁻¹ s⁻¹

**Q.** And the Kd [9]?
**A.** 4.5 nM

**Q.** What about the koff [9] of the same binder?
**A.** 0.0074 s⁻¹

**Q.** And the kon [9]?
**A.** 1.66e+06 M⁻¹ s⁻¹

**Q.** What about the Kd [10] of the same binder?
**A.** 3 nM

**Q.** And the koff [10]?
**A.** 0.0027 s⁻¹

**Q.** What about the kon [10] of the same binder?
**A.** 880000 M⁻¹ s⁻¹

**Q.** What about the Kd [11] of the same binder?
**A.** 1.7 nM

**Q.** And the koff [11]?
**A.** 0.00278 s⁻¹

**Q.** And the kon [11]?
**A.** 1.64e+06 M⁻¹ s⁻¹

**Q.** What about the Kd [12] of the same binder?
**A.** 27.7 nM

**Q.** And the koff [12]?
**A.** 0.00541 s⁻¹

**Q.** And the kon [12]?
**A.** 195000 M⁻¹ s⁻¹

**Q.** What about the Kd [13] of the same binder?
**A.** 4.5 nM

**Q.** And the koff [13]?
**A.** 0.00327 s⁻¹

**Q.** What about the kon [13] of the same binder?
**A.** 720000 M⁻¹ s⁻¹

**Q.** And the Kd [14]?
**A.** 5.5 nM

**Q.** And the koff [14]?
**A.** 0.00947 s⁻¹

**Q.** What about the kon [14] of the same binder?
**A.** 1.73e+06 M⁻¹ s⁻¹

**Q.** And the Kd [15]?
**A.** 1.7 nM

**Q.** And the koff [15]?
**A.** 0.00531 s⁻¹

**Q.** What about the kon [15] of the same binder?
**A.** 3.16e+06 M⁻¹ s⁻¹

**Q.** What about the Kd [16] of the same binder?
**A.** 2.6 nM

**Q.** And the koff [16]?
**A.** 0.00448 s⁻¹

**Q.** What about the kon [16] of the same binder?
**A.** 1.75e+06 M⁻¹ s⁻¹

**Q.** And the Kd [17]?
**A.** 1.7 nM

**Q.** What about the koff [17] of the same binder?
**A.** 0.003 s⁻¹

**Q.** What about the kon [17] of the same binder?
**A.** 1.79e+06 M⁻¹ s⁻¹

**Q.** And the IC50 [3]?
**A.** 25.6 nM
